Data from article PMC7511888, “Dependence of PINK1 accumulation on mitochondrial redox system” (Aging Cell, 2020).

T1: CHCHD4 (human (endogenous in HEK293), UniProt Q8N4Q1 1-142)
T1 construct: CHCHD4, mammalian homologue of yeast Mia40; endogenous protein of HEK293 cells, precipitated with polyclonal anti-CHCHD4 antibodies (Proteintech); source: endogenous, HEK293 lysate
T1 sequence (looked up): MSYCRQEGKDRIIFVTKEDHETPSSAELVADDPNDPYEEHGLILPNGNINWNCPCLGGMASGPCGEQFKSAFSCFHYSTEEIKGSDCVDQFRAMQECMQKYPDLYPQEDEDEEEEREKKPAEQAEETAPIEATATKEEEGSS


Columns and labels:
[1] = biological target: CHCHD4 (human (endogenous in HEK293)) (UniProt Q8N4Q1); assay: co-IP; HEK293 cells transfected with PINK1-EGFP or its mutants for 24 hr; lysed; immunoprecipitation of endogenous CHCHD4 with anti-CHCHD4 antibody; immunoblot; level in the precipitant compared to input
CHCHD4 = biological target: T1, CHCHD4; assay: as above; details: partners not purified

Molecule | relative level in the precipitants as compared to input [1] | relative level in the precipitants as compared to input (CHCHD4)
PINK1‐EGFP ∆166‐171 (AA166‐171 deletion) (from UniProt Q9BXM7 78-581) (natural protein) | 1.01 | 
PINK1‐EGFP A168P (natural protein, UniProt Q9BXM7 78-581, looked up, PINK1 as in PINK1-EGFP with the PD-associated mutation A168P; also called PINK1 A168P; PD‐associated mutant; source: HEK293, transfected, in lysate; not shown: EGFP (from the vector pEGFP-N3), C-terminal, kept) AARLQRQFVVRAWGCAGPCGRAVFLAFGLGLGLIEEKQAESRRAVSACQEIQAIFTQKSKPGPDPLDTRRLQGFRLEEYLIGQSIGKGCSPAVYEATMPTLPQNLEVTKSTGLLPGRGPGTSAPGEGQERAPGAPAFPLAIKMMWNISAGSSSEAILNTMSQELVPASRVALAGEYGAVTYRKSKRGPKQLAPHPNIIRVLRAFTSSVPLLPGALVDYPDVLPSRLHPEGLGHGRTLFLVMKNYPCTLRQYLCVNTPSPRLAAMMLLQLLEGVDHLVQQGIAHRDLKSDNILVELDPDGCPWLVIADFGCCLADESIGLQLPFSSWYVDRGGNGCLMAPEVSTARPGPRAVIDYSKADAWAVGAIAYEIFGLVNPFYGQGKAHLESRSYQEAQLPALPESVPPDVRQLVRALLQREASKRPSARVAANVLHLSLWGEHILALKNLKLDKMVGWLLQQSAATLLANRLTEKCCVETKMKMLFLANLECETLCQAALLLCSWRAAL |  | 0.2
PINK1‐EGFP V170G (natural protein, UniProt Q9BXM7 78-581, looked up, PINK1 as in PINK1-EGFP with the PD-associated mutation V170G; also called PINK1 V170G; PD‐associated mutant; source: HEK293, transfected, in lysate; not shown: EGFP (from the vector pEGFP-N3), C-terminal, kept) AARLQRQFVVRAWGCAGPCGRAVFLAFGLGLGLIEEKQAESRRAVSACQEIQAIFTQKSKPGPDPLDTRRLQGFRLEEYLIGQSIGKGCSAAGYEATMPTLPQNLEVTKSTGLLPGRGPGTSAPGEGQERAPGAPAFPLAIKMMWNISAGSSSEAILNTMSQELVPASRVALAGEYGAVTYRKSKRGPKQLAPHPNIIRVLRAFTSSVPLLPGALVDYPDVLPSRLHPEGLGHGRTLFLVMKNYPCTLRQYLCVNTPSPRLAAMMLLQLLEGVDHLVQQGIAHRDLKSDNILVELDPDGCPWLVIADFGCCLADESIGLQLPFSSWYVDRGGNGCLMAPEVSTARPGPRAVIDYSKADAWAVGAIAYEIFGLVNPFYGQGKAHLESRSYQEAQLPALPESVPPDVRQLVRALLQREASKRPSARVAANVLHLSLWGEHILALKNLKLDKMVGWLLQQSAATLLANRLTEKCCVETKMKMLFLANLECETLCQAALLLCSWRAAL |  | 0.39
PINK1‐EGFP Y171S (natural protein, UniProt Q9BXM7 78-581, looked up, PINK1 as in PINK1-EGFP with Y171S; also called Y171S point mutant; source: HEK293, transfected, in lysate; not shown: EGFP (from the vector pEGFP-N3), C-terminal, kept) AARLQRQFVVRAWGCAGPCGRAVFLAFGLGLGLIEEKQAESRRAVSACQEIQAIFTQKSKPGPDPLDTRRLQGFRLEEYLIGQSIGKGCSAAVSEATMPTLPQNLEVTKSTGLLPGRGPGTSAPGEGQERAPGAPAFPLAIKMMWNISAGSSSEAILNTMSQELVPASRVALAGEYGAVTYRKSKRGPKQLAPHPNIIRVLRAFTSSVPLLPGALVDYPDVLPSRLHPEGLGHGRTLFLVMKNYPCTLRQYLCVNTPSPRLAAMMLLQLLEGVDHLVQQGIAHRDLKSDNILVELDPDGCPWLVIADFGCCLADESIGLQLPFSSWYVDRGGNGCLMAPEVSTARPGPRAVIDYSKADAWAVGAIAYEIFGLVNPFYGQGKAHLESRSYQEAQLPALPESVPPDVRQLVRALLQREASKRPSARVAANVLHLSLWGEHILALKNLKLDKMVGWLLQQSAATLLANRLTEKCCVETKMKMLFLANLECETLCQAALLLCSWRAAL |  | 3.31
